According to article PMC9441717 (The Journal of Cell Biology, 2022):

Tests used:
Assay in all cases: pull-down
[1] = molecular target: T1, His-tagged STX8 (1-210) (human, UniProt Q9UNK0 1-210)
T1 sequence: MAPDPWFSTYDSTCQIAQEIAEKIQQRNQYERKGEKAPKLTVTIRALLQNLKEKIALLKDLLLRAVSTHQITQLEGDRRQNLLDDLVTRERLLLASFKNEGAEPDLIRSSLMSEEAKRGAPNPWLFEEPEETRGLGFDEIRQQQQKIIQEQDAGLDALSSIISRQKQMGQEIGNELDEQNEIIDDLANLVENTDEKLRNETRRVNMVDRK

[2] = molecular target: T2, His-tagged VTI1B (1-204) (human, UniProt Q9UEU0 1-204)
T2 sequence: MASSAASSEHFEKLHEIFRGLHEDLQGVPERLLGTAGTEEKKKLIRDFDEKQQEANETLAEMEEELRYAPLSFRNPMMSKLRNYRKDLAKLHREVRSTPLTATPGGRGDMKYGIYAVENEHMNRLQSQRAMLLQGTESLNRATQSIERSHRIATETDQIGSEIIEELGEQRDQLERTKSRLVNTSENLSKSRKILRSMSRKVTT

[3] = molecular target: T3, His-tagged STX7 (1-236) (human, UniProt O15400 1-236)
T3 sequence: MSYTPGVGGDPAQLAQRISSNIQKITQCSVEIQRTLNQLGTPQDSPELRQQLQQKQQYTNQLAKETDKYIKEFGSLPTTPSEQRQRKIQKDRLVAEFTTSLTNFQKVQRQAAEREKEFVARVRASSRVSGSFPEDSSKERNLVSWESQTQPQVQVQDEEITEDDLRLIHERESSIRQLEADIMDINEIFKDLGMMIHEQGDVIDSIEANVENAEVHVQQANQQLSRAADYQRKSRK

- binding result [1]: binds
- binding result [2]: binds
- binding result [3]: binds
B1: GST-tagged VAMP4 (1-115) (domain or fragment)
chain: MPPKFKRHLNDDDVTGSVKSERRNLLEDDSDEEEDFFLRGPSGPRFGPRNDKIKHVQNQVDEVIDVMQENITKVIERGERLDELQDKSESLSDNATAFSNRSKQLRRQMWWRGCK
